{"source": "IntAct's records for PubMed 19293378", "parents": {"B1": {"name": "Apoptosis regulator BHRF1 (Epstein-Barr virus (strain B95-8) (HHV-4)), P03182 (parent)", "chain": "MAYSTREILLALCIRDSRVHGNGTLHPVLELAARETPLRLSPEDTVVLRYHVLLEEIIERNSETFTETWNRFITHTEHVDLDFNSVFLEIFHRGDPSLGRALAWMAWCMHACRTLCCNQSTPYYVVDLSVRGMLEASEGLDGWIHQQGGWSTLIEDNIPGSRRFSWTLFLAGLTLSLLVICSYLFISRGRH", "partner": "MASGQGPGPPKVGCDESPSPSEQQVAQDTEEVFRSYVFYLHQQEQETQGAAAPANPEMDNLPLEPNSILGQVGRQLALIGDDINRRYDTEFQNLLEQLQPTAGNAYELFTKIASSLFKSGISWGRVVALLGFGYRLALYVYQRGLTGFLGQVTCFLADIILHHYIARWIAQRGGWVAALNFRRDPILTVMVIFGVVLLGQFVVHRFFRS"}, "B2": {"name": "Apoptosis regulator BHRF1 (Epstein-Barr virus (strain B95-8) (HHV-4)), P03182 (parent)", "chain": "B1 chain"}}}
{"variants_of": "B1", "details": "with bak_mouse Bak1, O08734"}
{"variant": "G99A", "effect of a mutation on the interaction": "decreasing interaction strength"}
{"variant": "L98A;G99A;R100A", "effect of a mutation on the interaction": "disrupting interaction strength"}
{"variant": "R100A", "effect of a mutation on the interaction": "decreasing interaction strength"}
{"variant": "L98A", "effect of a mutation on the interaction": "decreasing interaction strength"}
{"variants_of": "B2", "details": "with Bcl2l11, O54918"}
{"variant": "G99A", "effect of a mutation on the interaction": "decreasing interaction strength"}
